{
  "source": "patent US10087260B2",
  "about": "“Anti-HER2 antibody and conjugate thereof” (REMEGEN, LTD., priority 2013, dated 2018)",
  "key": {"[1]": {"assay": "Toxicity in SD rat, single intravenous infusion", "type": "in vivo", "procedure": "SPF-level SD rats (the certificate No. is SCXK (jing)2012-0001) purchased from Beijing Vital River Laboratories Animal Technology Co, Ltd. were randomly divided into 7 groups according to gender, in which there were 10 rats in a group with half male and half female. These 7 groups included physiological saline negative control group, 0.48 mg/kg MMAE control group, 40 mg/kg RC48 naked antibody control group and series of RC48-vc-MMAE dose groups, in which the rats were dosed via tail vein infusion, and the experimental observation period was 21 days. The body weights were weighted at D1 (pre-dosing), D8, D15 and D22. After the observation period, the animals were euthanized and performed a general pathological anatomical observation, and the abnormal tissues or organs observed by the general anatomical observation were subjected to a histological examination."}, "[2]": {"system": "chronic non-Hodgkin's lymphocytoma (NHL)", "settings": "cited from earlier work"}, "[3]": {"system": "NCI-N87 human gastric cancer", "assay": "NCI-N87 human gastric cancer nude mouse subcutaneous transplantation tumor model", "type": "in vivo", "settings": "200 mg/kg, dosing once per week, for 21 days", "procedure": "[Worded in the source for another cell line; this cell line is reported under the same test.] (§1) SPF-level BALB/c nude mice were inoculated subcutaneously with a certain amount of BT-474/L1.9 tumor cells, and after the tumor growing to 100-200 mm3, the animals were randomly grouped. […] The tumor volume was measured 2 times a week. […] The data were recorded. The tumor volume and the tumor-inhibition rate of each tumor-bearing mouse were calculated at different observation time points."}, "[4]": {"system": "BT-474/L1.9 human breast cancer", "assay": "Herceptin- and Lapatinib-resistant BT-474/L1.9 nude mouse subcutaneous transplantation tumor model", "type": "in vivo", "procedure": "as §1"}, "[5]": {"system": "recurrent or refractory Hodgkin's lymphoma", "settings": "cited from earlier work"}, "[6]": {"system": "BT474 human breast cancer tumor", "type": "in vivo", "settings": "10 mg/kg, three administrations, 37 days after dosing", "procedure": "Five millions of BT474 cells were suspended in PBS, and inoculated to the armpit of BALB/c nude mouse (provided by Shanghai Slac Laboratory Animal Co. Ltd., with the certificate No. 2007000540582 and license No. SCXK(hu)2012-0002). After the tumor was formed, the tumor tissue which grew vigorously was taken and cut into about 1.5 mm^3, and inoculated subcutaneously to the right-side armpit of nude mouse under sterile conditions. The diameter of the nude mouse transplantation tumor was measured by vernier caliper. The animals were grouped randomly until the tumor grew up to 100˜300 mm^3."}, "MDA-MBA468": {"system": "MDA-MBA468", "assay": "Flow cytometry binding with HER2 negative cells", "type": "cell-based, human", "settings": "6 μg antibody", "procedure": "(§2) After 2 times of thoroughly washing with 4 ml cold PBS, the antibodies binding with the cell surface were detected by R-PE-coupled goat anti-human IgG Fc specific second antibody (15 μl, 25 μg/mL), and then analyzed by flow cytometer (BD FACSCalibur)."}, "HER2-ECD": {"biological_target": "T1, HER2-ECD (Homo sapiens, UniProt P04626)", "T1 construct": "made in house; host or cells: HEK293", "assay": "ELISA HER2-ECD binding affinity constant of antibodies", "settings": "ELISA on coated HER2-ECD; average of 3 independent assays", "procedure": "HER2-ECD as described above was used as the antigen for immunizing the mouse and monoclonal antibody generation. Immunization, hybridoma cells fusion and primary screen were conducted according to standard procedures (reference: WHO Technical Report Series, No. 822, 1992 Annex 3). Four Balb/c mice (commercially obtained from Shanghai Slac Laboratory Animal Co. Ltd.) were immunized with equal volume of well-blended 0.25 ml HER2-ECD protein (50-100 μg) and 0.25 ml Freund's complete adjuvant (Difco Lab). Two weeks later, the second injection was carried out with Freund's incomplete adjuvant (Difco Lab) in which the amount of antigen was 25-50 μg/0.5 ml/mouse. Three weeks later, the third injection was carried out in which the amount was the same with that in the second injection. Ten days after the third injection the blood was drawn. The mice serum were detected by enzyme-linked immunosorbent assay (ELISA), and the spleens of the two mice with highest anti-HER2 antibody titer in serum were taken, which were then fused with the myeloma cell P3X63Ag8 (ATCC CRL-1580). […] Murine-derived anti-HER2 antibody was detected by the goat F(ab′)2 anti-murine IgG Fc specific second antibody coupled with horse radish peroxidase (Invitrogen Inc.)."}, "[7]": {"system": "HER2+ cells SK-BR-3, BT474", "assay": "Flow cytometry binding with HER2 positive breast cancer cells", "type": "cell-based, human", "settings": "6 μg antibody, SK-BR-3 and BT474", "procedure": "as §2"}, "[8]": {"biological_target": "T2, HER2 on BT474 cell surface (Homo sapiens, UniProt P04626)", "T2 construct": "HER2 which was endogenously expressed in human breast cancer cells; endogenous in cells; host or cells: BT474 human breast cancer cells", "assay": "Flow cytometry binding curve with HER2 on BT474 cell surface", "settings": "BT474 cells, antibody titration, read-out: Binding affinity Kd", "procedure": "as §2"}, "[9]": {"system": "BT474 human breast cancer transplantation tumor", "assay": "Tumor inhibition of RC48, BT474 human breast cancer transplantation tumor model", "type": "in vivo, nude mouse", "settings": "10 mg/kg, administered three times", "description": "Human breast cancer BT474 nude mouse transplantation tumor model was established by inoculating BT474 cells into nude mouse subcutaneously. After growing continuously in vivo for 3 generations, the tumor tissue which grew vigorously was taken and cut into about 1.5 mm3, and inoculated subcutaneously to right-side armpit of nude mouse (provided by Shanghai Slac Laboratory Animal Co. Ltd., with the certificate No. 2007000540582 and license No. SCXK(hu)2012-0002) under sterile conditions. The diameter of the nude mouse transplantation tumor was measured by vernier caliper. The animals were grouped randomly until the tumor grew up to 100˜300 mm3."}, "EGFR": {"biological_target": "EGFR (Homo sapiens, UniProt P00533)", "assay": "Antigen binding specificity ELISA", "settings": "20 ng antigen per well", "procedure": "[Worded in the source for another target; used here, by the source, with some conditions changed.] (§3) HER2-ECD as described above was used as the antigen for immunizing the mouse and monoclonal antibody generation. Immunization, hybridoma cells fusion and primary screen were conducted according to standard procedures (reference: WHO Technical Report Series, No. 822, 1992 Annex 3). Four Balb/c mice (commercially obtained from Shanghai Slac Laboratory Animal Co. Ltd.) were immunized with equal volume of well-blended 0.25 ml HER2-ECD protein (50-100 μg) and 0.25 ml Freund's complete adjuvant (Difco Lab). Two weeks later, the second injection was carried out with Freund's incomplete adjuvant (Difco Lab) in which the amount of antigen was 25-50 μg/0.5 ml/mouse. Three weeks later, the third injection was carried out in which the amount was the same with that in the second injection. Ten days after the third injection the blood was drawn. The mice serum were detected by enzyme-linked immunosorbent assay (ELISA), and the spleens of the two mice with highest anti-HER2 antibody titer in serum were taken, which were then fused with the myeloma cell P3X63Ag8 (ATCC CRL-1580). The fused cells were diluted onto ten 96-well plates, and the preliminary screen was carried out through ELISA method depending on the binding capacity with HER2-ECD. In a classical ELISA assay, the Nunc Maxisord 96-well plate was coated with HER2-ECD (0.2-1 μg/ml), and then incubated with gradient diluted mouse serum or hybridoma supernatant (100 μL). Murine-derived anti-HER2 antibody was detected by the goat F(ab′)2 anti-murine IgG Fc specific second antibody coupled with horse radish peroxidase (Invitrogen Inc.)."}, "HER2": {"biological_target": "HER2 (Homo sapiens, UniProt P04626)", "assay": "Antigen binding specificity ELISA", "settings": "20 ng antigen per well", "procedure": "as §3"}, "HER3": {"biological_target": "HER3 (Homo sapiens, UniProt P21860)", "assay": "Antigen binding specificity ELISA", "settings": "20 ng antigen per well", "procedure": "[Worded in the source for another target; used here, by the source, with some conditions changed.] as §3"}, "HER4": {"biological_target": "HER4 (Homo sapiens, UniProt Q15303)", "sequence (Q15303 26-1308, species assumed)": "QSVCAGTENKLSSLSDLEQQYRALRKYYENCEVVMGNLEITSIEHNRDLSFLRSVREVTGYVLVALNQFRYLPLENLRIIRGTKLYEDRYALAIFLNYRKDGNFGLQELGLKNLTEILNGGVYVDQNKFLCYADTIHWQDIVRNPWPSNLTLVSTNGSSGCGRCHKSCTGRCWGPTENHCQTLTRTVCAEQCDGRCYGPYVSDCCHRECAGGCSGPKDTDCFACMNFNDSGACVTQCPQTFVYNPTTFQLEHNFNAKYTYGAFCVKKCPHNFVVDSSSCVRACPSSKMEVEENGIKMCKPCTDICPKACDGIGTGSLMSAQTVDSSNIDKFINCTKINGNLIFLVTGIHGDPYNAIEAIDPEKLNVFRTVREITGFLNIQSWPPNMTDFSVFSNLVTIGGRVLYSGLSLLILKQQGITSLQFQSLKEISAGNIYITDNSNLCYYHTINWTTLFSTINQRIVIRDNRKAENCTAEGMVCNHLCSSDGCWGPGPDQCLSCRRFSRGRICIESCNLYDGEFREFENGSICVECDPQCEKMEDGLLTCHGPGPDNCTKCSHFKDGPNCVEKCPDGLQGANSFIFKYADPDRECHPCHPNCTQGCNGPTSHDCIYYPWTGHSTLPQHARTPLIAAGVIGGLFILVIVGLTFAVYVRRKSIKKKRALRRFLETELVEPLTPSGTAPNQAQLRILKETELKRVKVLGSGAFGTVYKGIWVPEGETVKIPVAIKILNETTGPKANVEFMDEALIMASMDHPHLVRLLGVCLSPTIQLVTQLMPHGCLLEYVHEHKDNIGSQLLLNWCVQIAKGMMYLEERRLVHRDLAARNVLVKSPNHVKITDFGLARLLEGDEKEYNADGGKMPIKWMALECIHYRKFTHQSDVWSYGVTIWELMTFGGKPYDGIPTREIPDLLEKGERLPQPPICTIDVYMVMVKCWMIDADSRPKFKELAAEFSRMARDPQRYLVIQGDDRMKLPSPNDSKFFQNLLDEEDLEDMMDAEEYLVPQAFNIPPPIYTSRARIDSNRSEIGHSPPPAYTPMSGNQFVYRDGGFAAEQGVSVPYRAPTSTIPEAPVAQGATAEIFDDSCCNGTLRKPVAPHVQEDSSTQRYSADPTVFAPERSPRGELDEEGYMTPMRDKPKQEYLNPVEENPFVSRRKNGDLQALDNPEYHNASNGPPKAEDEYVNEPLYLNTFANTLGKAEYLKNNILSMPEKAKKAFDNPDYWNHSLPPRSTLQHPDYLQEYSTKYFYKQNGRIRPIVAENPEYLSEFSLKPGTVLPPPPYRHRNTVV", "assay": "Antigen binding specificity ELISA", "settings": "20 ng antigen per well", "procedure": "[Worded in the source for another target; used here, by the source, with some conditions changed.] as §3"}},
  "note": "Entries after “also recorded” stand apart in the source; their conditions may differ. Square brackets hold non-standard residues; d marks the D form. Peptide text beside a SMILES is read from it. * marks the point of attachment. Dolaproine = CO[C@@H]([C@@H]1CCCN1)[C@@H](C)C(=O)O; Dil = CC[C@H](C)[C@H](NC)[C@@H](CC(=O)O)OC; X1 = C[C@@H](N*)[C@@H](O)c1ccccc1; NMeV = CN[C@H](C(=O)O)C(C)C",
  "data": [
    {"molecule": "CC[C@H](C)[C@@H]([C@@H](CC(=O)N1CCC[C@H]1[C@H](OC)[C@@H](C)C(=O)N[C@H](C)[C@@H](O)c1ccccc1)OC)N(C)C(=O)[C@@H](NC(=O)[C@@H](NC)C(C)C)C(C)C", "note": "[MMAE, Monomethyl auristatin E, reference compound] (H-[NMeV]V[Dil][Dolaproine]-X1)", "values": [
      {"measurement": "animals found dead during the experiment", "setting": "[1]; 0.48 mg/kg MMAE control group, single tail vein infusion, 21 days", "value": "9/10"}
    ]},
    {"molecule": "Rituxan: monoclonal antibody drug against lymphocytoma such as NHL", "values": [
      {"measurement": "total response rate", "setting": "[2]; Phase II clinical study, NHL, used alone", "value": 6, "unit": "%"},
      {"measurement": "effective rate", "setting": "[2]; in combination with standard chemotherapy, chronic lymphocytoma", "value": "up to 90%"}
    ]},
    {"molecule": "CS(=O)(=O)CCNCc1ccc(-c2ccc3ncnc(Nc4ccc(OCc5cccc(F)c5)c(Cl)c4)c3c2)o1", "note": "[Lapatinib]", "values": [
      {"measurement": "tumor-inhibition rate", "setting": "[3]", "value": 78, "unit": "%"},
      {"measurement": "tumor-inhibition rate", "setting": "[4]; 200 mg/kg, dosing everyday", "value": 45, "unit": "%"}
    ]},
    {"molecule": "brentuximab vedotin", "values": [
      {"measurement": "patients achieving partial response", "setting": "[5]; Phase II, 102 patients", "value": 40, "unit": "%"},
      {"measurement": "overall response rate", "setting": "[5]; median treatment course 6.7 months", "value": 73, "unit": "%"},
      {"measurement": "complete response rate", "setting": "[5]; median treatment course 20.5 months", "value": 34, "unit": "%"}
    ]},
    {"molecule": "T-DM1", "values": [
      {"measurement": "tumor-inhibition rate", "setting": "[4]; 5 mg/kg, once per week, totally 2 times", "value": 58, "unit": "%"}
    ]},
    {"molecule": "RC48: humanized anti-HER2 antibody RC48, derived from mRC48 antibody by humanized engineering; human IgG1κ (antibody, chains of the INN, looked up, V domains shown) VH: EVQLVQSGAEVKKPGATVKISCKVSGYTFTDYYIHWVQQAPGKGLEWMGRVNPDHGDSYYNQKFKDKATITADKSTDTAYMELSSLRSEDTAVYFCARNYLFDHWGQGTLVTVSS VL: DIQMTQSPSSVSASVGDRVTITCKASQDVGTAVAWYQQKPGKAPKLLIYWASIRHTGVPSRFSGSGSGTDFTLTISSLQPEDFATYYCHQFATYTFGGGTKVEIK", "values": [
      {"measurement": "tumor volume as % of the control group", "setting": "[6]", "value": 83, "unit": "%"},
      {"measurement": "binding with HER2 negative cells", "setting": "MDA-MBA468", "value": "no binding"},
      {"measurement": "Kd", "setting": "HER2-ECD", "value": 0.044, "unit": "nM"},
      {"measurement": "binding with HER2 positive cells", "setting": "[7]", "value": "strong binding; also recorded: higher binding affinity"},
      {"measurement": "Kd", "setting": "[8]", "value": 4, "unit": "nM"},
      {"measurement": "tumor-inhibitory effect on BT474 tumors", "setting": "[9]", "value": "inhibited; also recorded: significantly better tumor-inhibitory effect"},
      {"measurement": "toxicity response symptom", "setting": "[1]; 40 mg/kg, single intravenous infusion", "value": "no evident toxicity response symptom"},
      {"measurement": "maximal tolerant dose of rat", "setting": "[1]; single intravenous infusion", "value": "≥ 40", "unit": "mg/kg"},
      {"measurement": "binding capacity with EGFR", "setting": "EGFR", "value": "nearly had no binding capacity; also recorded: not with EGFR, HER3 and HER4"},
      {"measurement": "binding capacity with HER2", "setting": "HER2", "value": "strong binding capacity; also recorded: only shows specific binding affinity with HER2"},
      {"measurement": "binding capacity with HER3", "setting": "HER3", "value": "nearly had no binding capacity; also recorded: not with EGFR, HER3 and HER4"},
      {"measurement": "binding capacity with HER4", "setting": "HER4", "value": "nearly had no binding capacity; also recorded: not with EGFR, HER3 and HER4"}
    ]}
  ]
}
